Source: ChEMBL document CHEMBL1145519, “Exploitation of structural and regulatory diversity in glutamate racemases” (Nature, 2007)
Positions count from the first letter of the chain named. Names and notes keep the numbering of the source.

Experiments:
[1] = substrate: N[C@@H](CCC(=O)O)C(=O)O; experiment: (§1) Activity of Enterococcus faecalis MurI
[2] = substrate: N[C@H](CCC(=O)O)C(=O)O; experiment: as §1
[3] = substrate: N[C@@H](CCC(=O)O)C(=O)O; conditions: Helicobacter pylori
Description: Activity of Helicobacter pylori MurI

[4] = substrate: N[C@H](CCC(=O)O)C(=O)O; conditions: Helicobacter pylori
Description: Activity of Helicobacter pylori MurI

[5] = substrate: N[C@@H](CCC(=O)O)C(=O)O; conditions: Helicobacter pylori; remark: listed apart in the source
Description: (§2) Activity of Helicobacter pylori MurI A75T mutant

[6] = substrate: N[C@H](CCC(=O)O)C(=O)O; conditions: Helicobacter pylori; remark: listed apart in the source
Description: as §2

[7] = substrate: N[C@@H](CCC(=O)O)C(=O)O; conditions: Helicobacter pylori; remark: listed apart in the source
Description: (§3) Activity of Helicobacter pylori MurI E151K mutant

[8] = substrate: N[C@H](CCC(=O)O)C(=O)O; conditions: Helicobacter pylori; remark: listed apart in the source
Description: as §3

B1: Glutamate racemase (Enterococcus faecalis (strain ATCC 700802 / V583)), Q836J0 (protein)
chain: MSNQEAIGLIDSGVGGLTVLKEALKQLPNERLIYLGDTARCPYGPRPAEQVVQFTWEMADFLLKKRIKMLVIACNTATAVALEEIKAALPIPVVGVILPGARAAVKVTKNNKIGVIGTLGTIKSASYEIAIKSKAPTIEVTSLDCPKFVPIVESNQYRSSVAKKIVAETLQALQLKGLDTLILGCTHYPLLRPVIQNVMGSHVTLIDSGAETVGEVSMLLDYFDIAHTPEAPTQPHEFYTTGSAKMFEEIASSWLGIENLKAQQIHLGGNEND
- Km [1]: 1200 µM
- kcat [1]: 25 s⁻¹
- Km [2]: 250 µM
- kcat [2]: 11.7 s⁻¹

B2: Glutamate racemase (Helicobacter pylori (strain ATCC 700392 / 26695) (Campylobacterpylori)), P56068 (protein)
chain: MKIGVFDSGVGGFSVLKSLLKAQLFDEIIYYGDSARVPYGTKDPTTIKQFGLEALDFFKPHQIKLLIVACNTASALALEEMQKHSKIPVVGVIEPSILAIKRQVKDKNAPILVLGTKATIQSNAYDNALKQQGYLNVSHLATSLFVPLIEESILEGELLETCMRYYFTPLEILPEVVILGCTHFPLIAQKIEGYFMEHFALSTPPLLIHSGDAIVEYLQQNYALKKNACAFPKVEFHASGDVVWLEKQAKEWLKL
- Km [3]: 740 µM
- kcat [3]: 1.05 s⁻¹
- Km [4]: 63 µM
- kcat [4]: 0.2 s⁻¹

B3: Glutamate racemase (Helicobacter pylori (strain ATCC 700392 / 26695) (Campylobacterpylori)), P56068 A75T (protein)
chain: B2 chain with A75T
- Km [5]: 7430 µM
- kcat [5]: 1.78 s⁻¹
- Km [6]: 275 µM
- kcat [6]: 0.065 s⁻¹

B4: Glutamate racemase (Helicobacter pylori (strain ATCC 700392 / 26695) (Campylobacterpylori)), P56068 E151K (protein)
chain: B2 chain with E151K
- Km [7]: 7360 µM
- kcat [7]: 2.27 s⁻¹
- Km [8]: 282 µM
- kcat [8]: 0.0833 s⁻¹
